Patent publication US20250152746A1, “BASE EDITING OF ANGPTL3 AND METHODS OF USING SAME FOR TREATMENT OF DISEASE” (Verve Therapeutics, Inc., priority 2020, published 2025)
Read-outs that look alike come from different tables or passages of the source.

B1: GA148: ANGPTL3 gRNA; protospacer ACAAAACTTCAATGAAACGT (SEQ ID NO: 146) (nucleic acid)
guide: ACAAAACTTCAATGAAACGTGTTTTAGAGCTAGAAATAGCAAGTTAAAATAAGGCTAGTCCGTTATCAACTTGAAAAAGTGGCACCGAGTCGGTGCTTTT
modifications: 2'-O-methyl at 1, 2, other sugars and backbone not given here; further chemistry not fully specified
B2: GA142: ANGPTL3 gRNA; protospacer TGAAAAACTTGAGAGTTGCT (SEQ ID NO: 140) (nucleic acid)
guide: UGAAAAACTTGAGAGTTGCTGTTTTAGAGCTAGAAATAGCAAGTTAAAATAAGGCTAGTCCGTTATCAACTTGAAAAAGTGGCACCGAGTCGGTGCTTTT
modifications: 2'-O-methyl at 1, 2, other sugars, backbone and T or U not given here; further chemistry not fully specified
B3: GA141: ANGPTL3 gRNA; protospacer TTGAGAGTTGCTGGGTCTGA (SEQ ID NO: 139) (nucleic acid)
guide: UUGAGAGTTGCTGGGTCTGAGTTTTAGAGCTAGAAATAGCAAGTTAAAATAAGGCTAGTCCGTTATCAACTTGAAAAAGTGGCACCGAGTCGGTGCTTTT
modifications: 2'-O-methyl at 1, 2, other sugars, backbone and T or U not given here; further chemistry not fully specified
B4: GA107: ANGPTL3 gRNA; protospacer AGCCAATGGCCTCCTTCAGT (SEQ ID NO: 105) (nucleic acid)
guide: AGCCAATGGCCTCCTTCAGTGTTTTAGAGCTAGAAATAGCAAGTTAAAATAAGGCTAGTCCGTTATCAACTTGAAAAAGTGGCACCGAGTCGGTGCTTTT
modifications: 2'-O-methyl at 1, 2, other sugars and backbone not given here; further chemistry not fully specified
B5: GA132: ANGPTL3 gRNA; protospacer GGAAGATAGAGAAATTTCTG (SEQ ID NO: 130) (nucleic acid)
guide: GGAAGATAGAGAAATTTCTGGTTTTAGAGCTAGAAATAGCAAGTTAAAATAAGGCTAGTCCGTTATCAACTTGAAAAAGTGGCACCGAGTCGGTGCTTTT
modifications: 2'-O-methyl at 1, 2, other sugars and backbone not given here; further chemistry not fully specified
B6: GA130: ANGPTL3 gRNA; protospacer ATGATGGTAAGACACTTTGG (SEQ ID NO: 128) (nucleic acid)
guide: AUGATGGTAAGACACTTTGGGTTTTAGAGCTAGAAATAGCAAGTTAAAATAAGGCTAGTCCGTTATCAACTTGAAAAAGTGGCACCGAGTCGGTGCTTTT
modifications: 2'-O-methyl at 1, 2, other sugars, backbone and T or U not given here; further chemistry not fully specified
B7: GA137: ANGPTL3 gRNA; protospacer TATCAGGTAAAACCTGTCTA (SEQ ID NO: 135) (nucleic acid)
guide: UATCAGGTAAAACCTGTCTAGTTTTAGAGCTAGAAATAGCAAGTTAAAATAAGGCTAGTCCGTTATCAACTTGAAAAAGTGGCACCGAGTCGGTGCTTTT
modifications: 2'-O-methyl at 1, 2, other sugars, backbone and T or U not given here; further chemistry not fully specified
B8: GA143: ANGPTL3 gRNA; protospacer TTAATTCAACATCGAATAGA (SEQ ID NO: 141) (nucleic acid)
guide: UUAATTCAACATCGAATAGAGTTTTAGAGCTAGAAATAGCAAGTTAAAATAAGGCTAGTCCGTTATCAACTTGAAAAAGTGGCACCGAGTCGGTGCTTTT
modifications: 2'-O-methyl at 1, 2, other sugars, backbone and T or U not given here; further chemistry not fully specified
B9: GA131: ANGPTL3 gRNA; protospacer GAAGATAGAGAAATTTCTGT (SEQ ID NO: 129) (nucleic acid)
guide: GAAGATAGAGAAATTTCTGTGTTTTAGAGCTAGAAATAGCAAGTTAAAATAAGGCTAGTCCGTTATCAACTTGAAAAAGTGGCACCGAGTCGGTGCTTTT
modifications: 2'-O-methyl at 1, 2, other sugars and backbone not given here; further chemistry not fully specified
B10: GA145: ANGPTL3 gRNA; protospacer CATTATATTCAGGTAGTCCA (SEQ ID NO: 143) (nucleic acid)
guide: CATTATATTCAGGTAGTCCAGTTTTAGAGCTAGAAATAGCAAGTTAAAATAAGGCTAGTCCGTTATCAACTTGAAAAAGTGGCACCGAGTCGGTGCTTTT
modifications: 2'-O-methyl at 1, 2, other sugars and backbone not given here; further chemistry not fully specified
B11: GA151: ANGPTL3 gRNA; protospacer GAGAACTACAAATATGGTTT (SEQ ID NO: 149) (nucleic acid)
guide: GAGAACTACAAATATGGTTTGTTTTAGAGCTAGAAATAGCAAGTTAAAATAAGGCTAGTCCGTTATCAACTTGAAAAAGTGGCACCGAGTCGGTGCTTTT
modifications: 2'-O-methyl at 1, 2, other sugars and backbone not given here; further chemistry not fully specified

Assays:
ANGPTL3 gene [1] = assay: ANGPTL3 gRNA/SpCas9 editing in primary human hepatocytes (Table 3); type: cell-based
Protocol: (§1) In set of experiments, PCSK9 gRNAs were co-transfected with an equivalent amount (1:1 ratio by weight) of in vitro transcribed commercially available SpCas9 mRNA MS002 purchased from TriLink Biotechnologies into primary human hepatocytes at 2500, 500, or 100 ng/RNA/mL and processed as described in detailed methods. Extracted genomic DNA was analyzed for gene editing at the target site with next-generation sequencing of PCR amplicons generated around the target sites. Samples were prepared using the Nextera XT DNA library preparation kit (Illumina) according to the manufacturer's protocol. Briefly, two rounds of PCR were performed first to amplify the region of interest and second to add DNA sequences required for next generation sequencing and sample identification to the initial product. The final amplicon was sequenced on the Illumina MiSeq instrument according to the manufacturer's protocol. A wide range of editing activities (Table 2) were observed. In a second set of experiments, ANGPTL3 gRNAs were co-transfected with an equivalent amount of in vitro transcribed SpCas9 mRNA (1:1 ratio by weight) into primary human hepatocytes and processed and analyzed similarly (Table 3).
(§2) Plating, culturing, and transfection of primary hepatocytes. Primary human liver hepatocytes (PHH) and primary cynomolgus liver hepatocytes (PCH) from BioIVT were cultured per the manufacturer's protocol. Briefly, primary human hepatocytes and primary cyno hepatocytes were obtained as frozen aliquots from BioIVT. Four lots of primary human hepatocytes, each derived from a de-identified individual donor, were used for the experiments: STL (main donor) was used for all experiments, including screening experiments and off-target experiments; HLY, JLP, and TLY were used for off-target experiments. The HFG lot of primary cyno hepatocytes were used for experiments. Following the manufacturer's instructions, cells were thawed and rinsed prior to plating in 24-well plates that had been coated with bovine collagen overnight, with a density of approximate 350,000 cells/well in INVITROGRO hepatocyte medium supplemented with TORPEDO antibiotic mix (BioIVT). The cells were thawed and resuspended in hepatocyte thawing medium followed by centrifugation at 100 g for 10 min at 4° C. The supernatant was discarded, and the pelleted cells resuspended in hepatocyte plating medium. Each vial contains approximately 5 million cells that were used for plating one 24-well plate. Plated cells were allowed to settle and adhere for 4-6 h in a tissue culture incubator at 37° C. under 5% CO2 atmosphere. After incubation, cells were checked for monolayer formation. The incubating media were then replaced with fresh hepatocyte maintenance media (complete INVITROGRO medium obtained from BioIVT, the cell line provider). The cells thus became ready for transfection. Each of the gRNAs were co-transfected with an equivalent amount of in vitro transcribed ABE8.8 mRNA (1:1 ratio by molecular weight) into primary human hepatocytes via MessengerMax reagent (Lipofectamine), using various dilutions to assess for editing activity at different concentrations of test article. MessengerMAX from Thermo Fisher is used for transfection. Solution A: desired amount of guide RNA is mixed with 1:1 wt ratio of mRNA in OptiMEM. Solution B: MessengerMAX in OptiMEM. After mixing solutions A and B, the mixture was incubated at room temperature for 20 min. 60 μL of the incubated solution was added dropwise to each cell wells. For protospacer sequences that were a perfect match to the corresponding cynomolgous monkey PCSK9 or ANGPTL3 gene sequence, each gRNA was also co-transfected with an equivalent amount of ABE8.8 mRNA (1:1 ratio by molecular weight) into primary cynomolgous hepatocytes, and followed the same transfection protocol. The cells were then allowed to remain at 37° C. for 3 days. […]

ANGPTL3 gene [2] = assay: ANGPTL3 gRNA/SpCas9 editing in primary cynomolgus hepatocytes (Table 3); type: cell-based, cynomolgus monkey
Protocol: as §1, §2

Molecule | Human Primary Hepatocyte Editing % 100 ng/ml (ANGPTL3 gene [1]) [%] | Human Primary Hepatocyte Editing % 500 ng/mL (ANGPTL3 gene [1]) [%] | Cyno Primary Hepatocyte Editing % 100 ng/mL (ANGPTL3 gene [2]) [%] | Cyno Primary Hepatocyte Editing % 500 ng/ml (ANGPTL3 gene [2]) [%] | Human Primary Hepatocyte Editing % 100 ng/ml (ANGPTL3 gene [1]; 100 ng/ml, SpCas9 mRNA 1:1 by weight) [%] | Human Primary Hepatocyte Editing % 500 ng/mL (ANGPTL3 gene [1]; 500 ng/mL, SpCas9 mRNA 1:1 by weight) [%] | Cyno Primary Hepatocyte Editing % 100 ng/mL (ANGPTL3 gene [2]; 100 ng/mL, SpCas9 mRNA 1:1 by weight) [%] | Cyno Primary Hepatocyte Editing % 500 ng/ml (ANGPTL3 gene [2]; 500 ng/ml, SpCas9 mRNA 1:1 by weight) [%]
B1 | 12.01 | 31.67 | 28.57 | 69.75 |  |  |  | 
B2 |  |  |  |  | 10.50 | 24.90 | 20.09 | 27.59
B3 | 5.80 | 14.87 | 5.49 | 10.32 |  |  |  | 
B4 | 3.72 | 5.09 | 32.58 |  |  |  |  | 
B5 | 15.25 | 28.39 | 15 | 26 |  |  |  | 
B6 | 7.51 | 17.09 | 14.60 | 25.90 |  |  |  | 
B7 | 11.44 | 29.70 | 28.01 | 30.57 |  |  |  | 
B8 | 9.30 | 19.36 | 14.84 | 21.16 |  |  |  | 
B9 |  | 18.64 | 10.10 | 27.57 |  |  |  | 
B10 | 12.55 | 26.33 | 18.77 | 30.34 |  |  |  | 
B11 | 10.56 | 31.88 | 11.32 | 38.91 |  |  |  | 
